Measurements from publication doi:10.1101/779439.

Biological target: peptide of CD3 zeta chain containing SNID2 (residues 115-135)
Experiment: ITC

Substance	Kd
HIV-2 consensus Nef core domain (residues 90-256) (domain or fragment)	12 µM
SIVmac239 Nef full core domain (residues 90-263), His-tagged, as used for ITC (domain or fragment)	5 µM
